Paper PMC8584152, “The Bacterial Amyloids Phenol Soluble Modulins from Staphylococcus aureus Catalyze Alpha-Synuclein Aggregation” (International Journal of Molecular Sciences, 2021)

B1: PSMα3 sequence FVAKLFKFFK (10-residue array peptide) (peptide)
peptide: FVAKLFKFFK
notes: source: 10-residue peptide immobilized on a microarray chip; maker not clearly stated
B2: PSMα2 sequence IIAGIIKFIK (10-residue array peptide) (peptide)
peptide: IIAGIIKFIK
notes: as for B1
B3: PSMα2 sequence GIIKFIKGLI (10-residue array peptide) (peptide)
peptide: GIIKFIKGLI
notes: as for B1

Each binder was assayed against Human wildtype α-syn, Alexa-fluor488-labelled (human, UniProt P37840 1-140) (assay: peptide or protein array). Details: both partners purified.
B1: binds.
B2: binds.
B3: binds.
